Literature values as cited in article PMC8836397.

Key:
[1] = biological target: Leu-enkephalin (Homo sapiens) (UniProt P01210)
[2] = biological target: WVYPW (tynorphin analog)
[3] = biological target: IVYPW (tynorphin analog)

Sequence of UniProt P01210 (P01210 whole entry, looked up): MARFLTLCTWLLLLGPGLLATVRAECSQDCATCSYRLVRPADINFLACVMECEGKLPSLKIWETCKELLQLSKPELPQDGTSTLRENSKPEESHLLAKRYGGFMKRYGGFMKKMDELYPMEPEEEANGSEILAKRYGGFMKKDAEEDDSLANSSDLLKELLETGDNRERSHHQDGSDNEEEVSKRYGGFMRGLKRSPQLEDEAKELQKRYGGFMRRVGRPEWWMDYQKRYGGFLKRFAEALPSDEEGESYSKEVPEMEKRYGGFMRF

Row | Substance | Kd [1] [µM] | Ki [2] [µM] | Ki [3] [µM]
1 | DPP III (inactive variant) (from UniProt Q9NY33) | 3.6 | – | –
2 | DPP III (from UniProt Q9NY33) | – | 0.126 | 0.1
